The values that follow come from patent US10246503B2, “Method of improving the pharmacokinetic profile of a therapeutic polypeptide and the use thereof” (BEIJING ANXINHUAIDE BIOTECH. CO., LTD, priority 2012, dated 2019).

The conditions of series [1]: in monkeys, literature [6]; cited from earlier work.
Series [2] deals with TNF-alpha. In words: cell-based or functional assay.
Series [3] has as its target human GLP-1 receptor (GLP-1R) (human, UniProt P43220 24-463). The series can be described thus: cell-based or functional assay.
Series [4] in a line: analytical gel filtration (Superdex200), apparent molecular weight. The series is classed as physicochemical. From the text:
In the fusion protein of GLP-1(A8G/G22E)-Fn8-COL18NC1 described in example 4, the flexible unstructured linker between Fn8 and COL18NC1 contains six residues (GGGSGG; SEQ ID NO:89). To generate the flexible un-structured linkers with different lengths, we have synthesized the genes GLP-1(A8G/G22E/R36S)-Fn8-COL18NC1-20, GLP-1(A8G/G22E/R36S)-Fn8-COL18NC1-30, GLP-1(A8G/G22E/R36S)-Fn8-COL18NC1-54 and GLP-1(A8G/G22E/R36S)-Fn8-COL18NC1-60. In these genes, the length of the flexible unstructured polypeptide linker between Fn8 and COL18NC1 contained 20, 30, 54 and 60 residues, respectively. The protein sequences of GLP-1(A8G/G22E/R36S)-Fn8-COL18NC1-20, GLP-1(A8G/G22E/R36S)-Fn8-COL18NC1-30, GLP-1(A8G/G22E/R36S)-Fn8-COL18NC1-54 and GLP-1(A8G/G22E/R36S)-Fn8-COL18NC1-60 are listed as SEQ ID NO:8-11. The synthetic genes of GLP-1(A8G/G22E/R36S)-Fn8-COL18NC1-20, GLP-1(A8G/G22E/R36S)-Fn8-COL18NC1-30, GLP-1(A8G/G22E/R36S)-Fn8-COL18NC1-54 and GLP-1(A8G/G22E/R36S)-Fn8-COL18NC1-60 were grafted to the pET29b by NdeI and XhoI for protein expressions. The expression and purification of these fusion proteins were carried out using similar protocols described in example 3. To estimate the hydrodynamic radius and/or the Rg of the fusion proteins, the purified proteins were loaded on an analytical gel filtration column Superdex200 (GE Healthcare).
Moreover, the flexible unstructured linker between the therapeutic polypeptide and the scaffold protein may adjust the hydrodynamic radius and/or the Rg of the fusion molecule in a tunable manner.
The apparent molecular weights of the fusion proteins were estimated by use of an analytical gel filtration column Superdex-200 (GE Healthcare) mounted on the AKTA FPLC system (GE Healthcare). The purified fusion proteins GLP-1-Fn8, GLP-1-Fn8-COL18NC1, GLP-1(A8G/G22E/R36G)-Fn8-p246-COL18NC1 were loaded on the Superdex200 column. GLP-1-Fn8 is a fusion protein of GLP-1 and Fn8 and contains the first 144 amino acid residues of the fusion protein GLP-1-Fn8-COL18NC1 (SEQ ID NO:2). […] The genuine molecular weights for the fusion proteins GLP-1-Fn8 monomer, GLP-1-Fn8-COL18NC1 trimer, and GLP-1(A8G/G22E/R36G)-Fn8-p246-COL18NC1 trimer were ˜15 Kd, 65 Kd and 123Kd, respectively.

Series [5] can be described thus: pharmacokinetics in Sprague-Dawley rats, sandwich ELISA (Example 6). Format: in vivo. Particulars: Sprague-Dawley rat, intraperitoneal, 0.66/0.72/0.75/0.78 mg/kg respectively. The procedure: To evaluate the pharmacokinetics profiles for the GLP-1 containing fusion proteins generated using the method of the invention, we purified GLP-1(A8G/G22E/R36S)-Fn8-COL18NC1, GLP-1(A8G/G22E/R36S)-Fn8-COL18NC1-20, GLP-1(A8G/G22E/R36S)-Fn8-COL18NC1-30, GLP-1(A8G/G22E/R36S)-Fn8-COL18NC1-54 in PBS buffer, pH 7.2. These fusion proteins were administered on Sprague-Dawley (SD) rats by intraperitoneal injections at the doses of 0.66 mg/kg, 0.72 mg/kg, 0.75 mg/kg, 0.78 mg/kg animal respectively. Blood samples were taken at various time points after injections such as 0-min, 30-min, 1-hour, 2-hour, 4-hour, 8-hour, 24-hour, 48-hour, 3-day, 4-day, 5-day. 7-day, 10-day. The serum samples were centrifuged and kept at −80° C. freezer.
(§1) The GLP-1 concentrations within the serum samples were examined by use of the sandwich ELISA method. The rabbit polyclonal antibody against human Fibronectin at the concentration of 3 ug/ml (Ab299, Abcam company) was coated on ELISA plate for 1 hour at room temperature. Then the plate was washed by PBST buffer three times and the wells were blocked by PBS with 10% FBS for 1 hour at room temperature. The plate was washed three times before the serum samples containing GLP-1 fusion proteins were added. The serum samples could be diluted to 20-10000 folds before use. The ELISA plate was incubated with the serum samples at room temperature for 1 hour and then washed by PBST buffer five times. Then mouse monoclonal against human GLP-1 peptide antibody (sc57510, Santa Cruz Biotechology) at the concentration of 1 ug/ml in PBST buffer was added to the wells. The plate was washed extensively after incubation of 1 hour at room temperature. The secondary antibody, […] HRP conjugated antibody (Beijing ZSGB-Bio company, ZB 5301), was added into the wells and the color was developed using TMB (3,3′,5,5′-tetramethylbenzidine, BD Biosciences, Cat 555214). The plate reader (Bio-Rad microplate reader Model 680) was utilized to obtain the OD450 readings. This method has been calibrated using purified proteins first.
The pharmacokinetics parameters were obtained by using the WinNonlin software (Table 3).

Series [6] is described as follows: pharmacokinetics in SD rats, sandwich ELISA (Example 15). Format: in vivo, SD (Sprague-Dawley) rats. Particulars: SD rats, intraperitoneal, 5 nmol/kg. The procedure: To evaluate the pharmacokinetics profiles for the GLP-1 containing fusion proteins generated using the method of the invention, we purified the recombinant fusion proteins of GLP-1-Fn8-COL18NC1, GLP1(A8G/G22E/R36G)-Fn8-p246-COL18NC1 and GLP1(A8G/G22E/R36G)-Fn8-p285-COL18NC1 in PBS buffer, pH 7.2. These fusion proteins were administered into SD (Sprague-Dawley) rats by intraperitoneal injections at the dose of 5 nmol/kg for animals, respectively. Blood samples were taken at various time points after injections such as 0-min, 30-min, 1-hour, 2-hour, 4-hour, 6-hour, 8-hour, 24-hour, 48-hour, 3-day, 4-day, 5-day, 6-day and 7-day. The serum samples were centrifuged and kept at −80° C. freezer.
as §1, with “within the samples were” for “within the serum samples were”, “Santa Cruz Biotechnology) at the” for “Santa Cruz Biotechology) at the”
The pharmacokinetics parameters were obtained by using the WinNonlin software (Table 5).
For orientation: An ELISA detects its analyte on a solid surface through an enzyme-linked reagent.

Like-named read-outs stand apart in the source and are kept apart here.

As to “GLP-1-Fc fusion protein: GLP-1-Fc fusion protein of literature reference [6] (LY2189265)”, the half life in series [1] is roughly 51 h.
Take TNFR2-Fc fusion protein (R&D Systems): the ED50, block of the apoptosis of L-929 mouse fibroblast cells induced by TNF-alpha (0.25 ng/mL) in the presence of actinomycin D in series [2] was 5 ng/mL.

B1: GLP-1(A8G/G22E/R36S)-Fn8-COL18NC1-20 (ligand)
chain: HGEGTFTSDVSSYLEEQAAKEFIAWLVKGSGGGGSGGAVPPPTDLRFTNIGPDTMRVTWAPPPSIDLTNFLVRYSPVKNEEDVAELSISPSDNAVVLTNLLPGTEYVVSVSSVYEQHESTPLRGRQKTGGGGGSGGGGSGGGGSGGGGSGASSGVRLWATRQAMLGQVHEVPEGWLIFVAEQEELYVRVQNGFRKVQLEARTPLPRG
As a reminder, the AUC(0-t) is the area under the concentration-time curve up to a stated or last time point. Low values mean less exposure, high ones more exposure. The Cmax is the peak of the concentration-time curve. On to B1, for which the “EC50 (nM) measured by cAMP assay” value in series [3] was 1.4 nM. In addition, the apparent molecular weight result in series [4] was “larger apparent molecular weight than their genuine molecular weight”. For the same molecule, in series [5], the “AUC(0-t)” value is 36210 ng·h/mL, the AUCinf was found to be 37240 ng·h/mL, the CL stood at 0.9505 mL/min/kg and the Cmax was 2260 ng/mL. Further, in series [5], the T½ came to 6.45 h and the V was 0.53016 L/kg.

B2: GLP-1-Fn8-COL18NC1: fusion of GLP-1, Fn8 and COL18NC1; SEQ ID NO: 2; abbreviated NC1 in Table 5 (protein)
chain: HAEGTFTSDVSSYLEGQAAKEFIAWLVKGRGGGGSGGGGSAVPPPTDLRFTNIGPDTMRVTWAPPPSIDLTNFLVRYSPVKNEEDVAELSISPSDNAVVLTNLLPGTEYVVSVSSVYEQHESTPLRGRQKTGGGGSGGGASSGVRLWATRQAMLGQVHEVPEGWLIFVAEQEELYVRVQNGFRKVQLEARTPLPRG
For B2, the apparent molecular weight in series [4] was roughly 100 Kd. Moreover, the half life in series [6] came out at 5.3 h.
